{
  "source": "patent US20120177632A1",
  "about": "“METHODS OF OPTIMIZING DISEASE TREATMENT” (priority 2011, published 2012)",
  "molecules": {"B1": {"name": "rIFNβ: recombinant mouse IFN-β (protein, UniProt P01575 22-182, looked up)", "Interferon beta": "INYKQLQLQERTNIRKCQELLEQLNGKINLTYRADFKIPMEMTEKMQKSYTAFAIQEMLQNVFLVFRNNFSSTGWNETIVVRLLDELHQQTVFLKTVLEEKQEERLTWEMSSTALHLKSYYWRVQRYLKLMKYNSYAWMVVRAEIFRNFLIIRRLTRNFQN"}},
  "key": {"GTP-Rac1": {"test_system": "GTP-Rac1", "experiment": "GTP-Rac1 level in bone marrow-derived macrophages (western blot)", "type": "cell-based, mouse", "conditions": "WT BMMs; 1,000 units/ml 24 h pretreatment, then 5 mM ATP 5, 10 or 15 min", "protocol": "Bone marrow-derived macrophages obtained from wild-type mice were pretreated with 1,000 units/ml rIFNα or IFNβ for 24 hours before treatment with 5 mM ATP for 5, 10, or 15 minutes. Cells were then lysed, and total GTP-Rac1 was compared to GTP-Rac1 by western blot first using an antibody specific for GTP-Rac1, followed by membrane stripping and probing with an antibody recognizing total Rac1. GTP-Rac1 signal densitometry for each sample was normalized to total Rac1 using NIH Image/Image J software."}, "gp91^phox": {"test_system": "gp91^phox", "experiment": "gp91phox mRNA in bone marrow-derived macrophages (qRT-PCR)", "type": "cell-based, mouse", "conditions": "WT BMMs; 1,000 units/ml, 24 h", "procedure": "Nlrp3, Asc, Casp1 and Txnip mRNA expression were evaluated by qRT-PCR. Bone marrow-derived macrophages from wild-type and Ifnar1^−/− mice were incubated with or without 100 ng/ml Ultrapure LPS for 3 hours, and the mRNA expression for each gene was measured by RT-PCR using standard techniques, showing no significant differences between the samples. Similarly, cell surface expression of ATP receptor P2X7R and CD39 (nucleoside triphosphate diphosphohydrolase 1), an ectonucleotidase that hydrolyzes extracellular ATP, on wild-type and Ifnar1^−/− macrophages were determined to be equivalent by flow cytometry using standard techniques. […] Wild-type bone marrow-derived macrophages were incubated with or without 1,000 units/ml rIFNβ for 24 hours before determining levels of gp91^phox mRNA in the total RNA by qRT-PCR using standard techniques. […] DQ ovalbumin staining locates lysosomes. The proportion of cells with DQ ovalbumin leakage to cytoplasm due to ruptured lysosomes was evaluated by incubating wild-type and Ifnar1^−/− macrophages with DQ ovalbumin (10 μg/ml) alone or a combination of DQ ovalbumin (10 μg/ml) and Alum (250 μg/ml) for 1 hour. Wild-type cells were also measured with and without exposure to rIFNα."}, "mitochondrial ROS": {"test_system": "mitochondrial ROS", "experiment": "ATP-induced mitochondrial ROS generation in macrophages (MITOSOX Red, flow cytometry)", "type": "cell-based", "conditions": "1,000 units/ml added 24 hr prior to 5 mM ATP for 30 min", "procedure": "This example assessed whether ROS generated by the mitochondria may play a role in NLRP3 inflammasome activation. We tested whether IFNβ suppresses ROS generated by mitochondria with MITOSOX™ Red (Invitrogen™). A time course of ATP-induced mitochondrial ROS generation in macrophages was generated using macrophages incubated with 5 mM ATP for the time indicated in FIG. 12A. Macrophages were incubated with 5 mM ATP for indicated time at 37° C. in complete RPMI medium. ROS activity increase was calculated as mean fluorescence intensity value increase (percent) of MITOSOX™ RED staining by flow cytometry. An increase of mean fluorescent intensity (MFI) of the MITOSOX™ staining is shown in FIG. 12(A, B) as the reference point of MFI at time=0 (i.e., no ATP treatment). The ROS activity increase was calculated as mean fluorescence intensity value increase (percent) of MITOSOX™ Red staining by flow cytometry (FIG. 12A).\nSuppression of mitochondrial ROS generation by type-1 IFNs was examined. Cells were incubated with 5 mM ATP for 30 min rIFNα or rIFNβ (1,000 units/mL) was added 24 hr prior to the ATP treatment. […]"}, "NADPH oxidase": {"test_system": "NADPH oxidase", "experiment": "p47phox foci (active NADPH oxidase) in bone marrow-derived macrophages, confocal microscopy", "type": "cell-based, mouse", "conditions": "WT BMMs; 1,000 units/ml 24 h pretreatment, then 5 mM ATP 1 h"}},
  "data": [
    {"molecule": "B1", "values": [
      {"measurement": "cellular levels of GTP-Rac1 (Rac1 activation)", "setting": "GTP-Rac1", "value": "inhibit activation of GTP Rac1"},
      {"measurement": "gp91phox mRNA expression", "setting": "gp91^phox", "value": "did not affect gp91^phox mRNA expression"},
      {"measurement": "mitochondrial ROS generation", "setting": "mitochondrial ROS", "value": "suppressed"},
      {"measurement": "formation of p47phox foci", "setting": "NADPH oxidase", "value": "inhibited the formation of p47^phox foci"}
    ]}
  ]
}
